Km data for one substance are collected here from ChEMBL document CHEMBL2074325, “The multidrug resistance protein 5 functions as an ATP-dependent export pump for cyclic nucleotides” (J Biol Chem, 2000).

The data set concerns [H][C@@]12COP(=O)(O)O[C@@]1([H])[C@@H](O)[C@H](n1cnc3c(=O)[nH]c(N)nc31)O2. Put plainly: TP_TRANSPORTER: uptake in membrane vesicles from MRP5-expressing V79 cells. It counts as functional, cell membranes, Membrane vesicle.

Take “ATP-binding cassette sub-family C member 5 (Homo sapiens)”: the Km worked out at 2.1 µM.
